Test results reported in PMC8420505 (2021).

Molecular target: Spike (SARS-CoV-2, UniProt P0DTC2)
Experiment: SPR

B1: Clec4g (protein)
chain: MNTGEYNKLGSAIEEVSRGQLGRWECYKQRLFFLVLALLVATVLWALILSTLLSSASSKLRVLLSHQDLLRTNASEQKMTLSSLKDDIGACRNCCSVTKAQLQTTLAEFKDIQAKLMEQESILKELQERVTQDLAKASRDRENIRSELFQALEAVKRQNSSCEQCPPSWLPFQGSCYYFSETQATWDTAQSYCGGQGAHLVIVRGLNEQGFLSQHTRGRGYWLGLRAVRHLNKIQGYRWVDGASLNFSHWNSGEPNDSRGHEDCIMMLHSGLWNDAPCTNERDGWICEKRSSCY
Kd: 1600 nM

B2: CD209c (protein)
chain: MRMHTRLQFLKRVSNVAYSHGQEQAKKEKVYKEMTQLKSQINRLCRPCPWDWTVFQGNCYFFSKFQQNWNDSVNACRKLDAQLVVIKSDDEQSFLQQTSKEKGYAWMGLSDLKHEGRWHWVDGSHLLFSFMKYWNKGEPNNEWEEDCAEFRGDGWNDAPCTIKKYWICKKSAMSCTEK
Kd: 1000 nM
